B7: Bio-PepK-StA (peptide)
peptide: {Biotin-AEEA}-KIAALKEKIAALKEKIAALKE-NH2
SMILES: CC[C@H](C)[C@H](NC(=O)[C@H](CCCCN)NC(=O)COCCOCCNC(=O)CCCC[C@@H]1SC[C@@H]2NC(=O)N[C@@H]21)C(=O)N[C@@H](C)C(=O)N[C@@H](C)C(=O)N[C@@H](CC(C)C)C(=O)N[C@@H](CCCCN)C(=O)N[C@@H](CCC(=O)O)C(=O)N[C@@H](CCCCN)C(=O)N[C@H](C(=O)N[C@@H](C)C(=O)N[C@@H](C)C(=O)N[C@@H](CC(C)C)C(=O)N[C@@H](CCCCN)C(=O)N[C@@H](CCC(=O)O)C(=O)N[C@@H](CCCCN)C(=O)N[C@H](C(=O)N[C@@H](C)C(=O)N[C@@H](C)C(=O)N[C@@H](CC(C)C)C(=O)N[C@@H](CCCCN)C(=O)N[C@@H](CCC(=O)O)C(N)=O)[C@@H](C)CC)[C@@H](C)CC

Test [1] has as its target activated PepE-Bio (N-terminal acetyl; C-terminal Aoa-Aoa-Lys(biotin)-NH2; glutamate side chains activated with EDC/NHS (NHS esters)). In words: cross-linking.
In test [2] the target is B7. In words: fluorescence polarisation. Background: Polarisation of emitted light reports the rotation of a fluorescent probe.
In test [3] the target is Fluo-PepE (fluorescein (5(6)-carboxyfluorescein)-Aoa (8-amino-3,6-dioxa-octanoic acid) on the N-terminus; C-terminal amide). Nature of the test: fluorescence polarisation.

*: point of attachment. Biotin = O=C1N[C@H]2[C@H](CS[C@H]2CCCCC(=O)*)N1; AEEA = NCCOCCOCC(=O)O

B1: Bio-PepK (peptide)
peptide: {Biotin-AEEA}-KIAALKEKIAALKEKIAALKE-NH2
SMILES: CC[C@H](C)[C@H](NC(=O)[C@H](CCCCN)NC(=O)COCCOCCNC(=O)CCCC[C@@H]1SC[C@@H]2NC(=O)N[C@@H]21)C(=O)N[C@@H](C)C(=O)N[C@@H](C)C(=O)N[C@@H](CC(C)C)C(=O)N[C@@H](CCCCN)C(=O)N[C@@H](CCC(=O)O)C(=O)N[C@@H](CCCCN)C(=O)N[C@H](C(=O)N[C@@H](C)C(=O)N[C@@H](C)C(=O)N[C@@H](CC(C)C)C(=O)N[C@@H](CCCCN)C(=O)N[C@@H](CCC(=O)O)C(=O)N[C@@H](CCCCN)C(=O)N[C@H](C(=O)N[C@@H](C)C(=O)N[C@@H](C)C(=O)N[C@@H](CC(C)C)C(=O)N[C@@H](CCCCN)C(=O)N[C@@H](CCC(=O)O)C(N)=O)[C@@H](C)CC)[C@@H](C)CC
For B1, the binding result in test [1] is “binds”.

B2: PepE(-5C) (peptide)
peptide: {fluorescein-AEEA}-EIAALEREIAALEREI-NH2
In the case of B2, the “fold drop in affinity against full-length PepE” value (shortened to “fold drop in affinity”) in test [2] was ~40 fold.

B3: PepE(-4C) (peptide)
peptide: {fluorescein-AEEA}-EIAALEREIAALEREIA-NH2
In the case of B3, the “fold drop in affinity” value in test [2] is ~40 fold.

B4: PepE(-3C) (peptide)
peptide: {fluorescein-AEEA}-EIAALEREIAALEREIAA-NH2
Regarding B4, the “fold drop in affinity” value in test [2] was ~40 fold.

B5: PepE(-1C) (peptide)
peptide: {fluorescein-AEEA}-EIAALEREIAALEREIAALE-NH2
As for B5, in test [2], the binding result was “binds”.

B6: PepE(-2C) (peptide)
peptide: {fluorescein-AEEA}-EIAALEREIAALEREIAAL-NH2
On to B6, for which, in test [2], the binding result was “binds”.

Regarding B7, the binding result in test [3] was “binds”.

The values are drawn from article PMC10549240 (RSC Chemical Biology, 2023).
